The text below walks through data of article PMC10380284, “Investigating the Prevalence of RNA-Binding Metabolic Enzymes in E. coli” (International Journal of Molecular Sciences, 2023).

Data set [1] deals with T1, quinone oxidoreductase (QorA) (Escherichia coli, UniProt P28304).
T1 construct: full-length ORF from ASKA library (pCA24N), N-terminal His-tag, expressed in E. coli BL21-Gold (DE3), IMAC and size exclusion
T1 sequence (P28304 1-327): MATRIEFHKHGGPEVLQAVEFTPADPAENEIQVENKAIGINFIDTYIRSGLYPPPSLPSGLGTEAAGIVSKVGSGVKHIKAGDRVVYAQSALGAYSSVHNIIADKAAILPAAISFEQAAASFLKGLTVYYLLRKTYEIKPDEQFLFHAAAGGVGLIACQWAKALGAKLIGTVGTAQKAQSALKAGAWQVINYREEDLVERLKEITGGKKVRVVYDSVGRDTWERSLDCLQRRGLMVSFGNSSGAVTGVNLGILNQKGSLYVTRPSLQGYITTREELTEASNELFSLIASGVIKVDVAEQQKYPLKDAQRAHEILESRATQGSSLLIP
In words: NMR shift experiment; also competition with RNA in EMSA and MST. The class given is binding. To be noted: 10-20 mM NADPH in the EMSA / MST competition with yffO mRNA fragment; pH 7.5. In general terms: Mobility shift assays separate free from complexed probe on a gel.

Another data set concerns the target MS2 phage coat protein (bacteriophage MS2, UniProt P03612 2-130). In words: EMSA; 0.34-34 uM protein, 700 nM RNA; 50 mM Tris (HEPES for PykF), 80 mM NaCl, 10 mM KCl, 0.8 mM MgCl2, 0.5 mM DTT, pH 7.5, 30 min at 37 C (EMSA); MST same buffer + 0.05% Tween-20. To be noted: protein: recombinant; chain copies: 2; label: 5' 32P; hairpin.
The target of data set [2] is T2, Phosphoglycerate kinase Pgk (Escherichia coli K12, UniProt P0A799 1-387).
T2 sequence: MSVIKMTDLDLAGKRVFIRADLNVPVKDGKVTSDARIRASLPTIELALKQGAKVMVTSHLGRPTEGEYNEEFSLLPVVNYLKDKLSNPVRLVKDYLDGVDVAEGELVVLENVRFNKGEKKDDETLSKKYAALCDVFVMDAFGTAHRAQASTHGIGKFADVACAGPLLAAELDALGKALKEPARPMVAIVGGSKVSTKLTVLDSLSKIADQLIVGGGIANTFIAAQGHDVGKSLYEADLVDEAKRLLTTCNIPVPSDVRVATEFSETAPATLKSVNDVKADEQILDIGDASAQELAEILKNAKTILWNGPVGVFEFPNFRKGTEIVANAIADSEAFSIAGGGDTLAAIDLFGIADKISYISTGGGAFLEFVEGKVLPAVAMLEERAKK
Briefly: EMSA; 30 uM Pgk, 7 uM RNA; stronger than hairpins; 50 mM Tris (HEPES for PykF), 80 mM NaCl, 10 mM KCl, 0.8 mM MgCl2, 0.5 mM DTT, pH 7.5, 30 min at 37 C (EMSA); MST same buffer + 0.05% Tween-20. The note with it: protein: recombinant; tags: N-terminal His (pCA24N, ASKA); label: 5' 32P; linear.

The target of data set [3] is T3, Quinone oxidoreductase QorA (Escherichia coli K12, UniProt P28304 1-327).
T3 sequence: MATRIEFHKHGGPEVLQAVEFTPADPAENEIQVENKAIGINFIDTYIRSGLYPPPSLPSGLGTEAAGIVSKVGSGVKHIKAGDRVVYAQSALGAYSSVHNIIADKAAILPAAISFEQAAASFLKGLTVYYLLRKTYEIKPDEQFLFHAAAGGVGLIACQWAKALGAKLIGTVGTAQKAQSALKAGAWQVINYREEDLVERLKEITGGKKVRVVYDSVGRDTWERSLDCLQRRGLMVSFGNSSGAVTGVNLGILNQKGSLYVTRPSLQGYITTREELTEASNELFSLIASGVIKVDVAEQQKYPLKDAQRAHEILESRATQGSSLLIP
Briefly: MST; 0.05% Tween-20; 10 nM RNA; 50 mM Tris (HEPES for PykF), 80 mM NaCl, 10 mM KCl, 0.8 mM MgCl2, 0.5 mM DTT, pH 7.5, 30 min at 37 C (EMSA); MST same buffer + 0.05% Tween-20. The note with it: protein: recombinant; tags: N-terminal His (pCA24N, ASKA); label: Cy5.

Data set [4] deals with T3, Quinone oxidoreductase QorA. In words: EMSA; 350 nM RNA; 50 mM Tris (HEPES for PykF), 80 mM NaCl, 10 mM KCl, 0.8 mM MgCl2, 0.5 mM DTT, pH 7.5, 30 min at 37 C (EMSA); MST same buffer + 0.05% Tween-20. The note with it: protein: recombinant; tags: N-terminal His (pCA24N, ASKA); label: 5' 32P.

By Kd is commonly meant the concentration at which binding is half-saturated.

Sequence of MS2 phage coat protein (P03612 2-130): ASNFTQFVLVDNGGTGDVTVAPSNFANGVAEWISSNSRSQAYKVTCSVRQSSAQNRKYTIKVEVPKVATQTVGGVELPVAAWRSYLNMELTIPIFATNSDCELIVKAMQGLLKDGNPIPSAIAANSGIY

With `NC(=O)C1=CN([C@@H]2O[C@H](COP(=O)(O)OP(=O)(O)OC[C@H]3O[C@@H](n4cnc5c(N)ncnc54)[C@H](OP(=O)(O)O)[C@@H]3O)[C@@H](O)[C@H]2O)C=CC1` [NADPH], the “NMR shift experiment; also competition with RNA in EMSA and MST” value in data set [1] is on record as “NMR shift experiments that revealed larger peak shifts for the QorA-NADPH complex”.

B1: rffG mRNA fragment (ssRNA)
RNA: GCACGCGUAUUCACUGAGCAUCAGCCAGACUGUGU
For B1, in the data set with MS2 phage coat protein, the binding result is given as “binds”.

B2: A-rich linear control RNA (ssRNA)
RNA: AGGACAAAAACAA
On to B2, for which the binding result in data set [2] is “binds”.

B3: Cy5-yffO mRNA fragment (ssRNA)
RNA: GGAGCAUAUGGACUUCAGGGAAGGGAU
As for B3, in data set [3], the Kd is around 7 µM.

B4: yffO mRNA fragment, 27 nt (ssRNA)
RNA: GGAGCAUAUGGACUUCAGGGAAGGGAU
B4: the Kd in data set [4] is around 7 µM.
